According to patent US20180273613A1 (SAMSUNG ELECTRONICS, published 2018):
One block for each binder: values may come before it.

Columns and labels:
BSA [1] = target: T1, BSA (bovine, UniProt P02769); experiment: Complex ELISA: BSA coated (4 µg/ml), FLAG-Ang2 0.25 µg/ml and 10D6 2 µg/ml, Ang2 on the plate shown indirectly by bound 10D6 (anti-mouse IgG-HRP, OD450)
T1 construct: commercial preparation, not further described; also called Bovine serum albumin; BSA (Sigma)
Description: (§1) A 96-well MaxiSorp™ flat-bottom plate (Nunc) was coated with 4 μg/ml of Tie2-Fc (R&D systems) or BSA (Sigma). Then, the plate was washed five times with 0.05% (v/v) Tween-20-containing PBS (Phosphate Buffer Saline) and blocked with 1% (v/v) BSA (Bovine serum albumin; Sigma)-containing PBS at a room temperature for 2 hours. 0.25 μg/ml of Ang2 and 2 μg/ml of 10D6 antibody were added to each well of the plate, which was allowed to react at a room temperature for 2 hours and then washed five times with PBST. After that, an anti-mouse IgG antibody (Sigma) conjugated with HRP diluted in 1% (v/v) BSA-containing PBS at a ratio of 1:5,000 (v/v) was added in an amount of 100 μl to each well to react at a room temperature for 1 hour and then, the plate was washed five times with PBST. Lastly, 100 μl (microliter) of TMB substrate (Cell Signaling) was added to each well of the plate to induce color development for 3 min. and then, the reaction was ceased by the addition of 100 μl of Stop solution (Cell Signaling) and OD450 values were measured on a plate reader (Molecular Devices).

[2] = target: T2, recombinant hAng2 (C-His, R&D Systems) (human, UniProt O15123 19-496); experiment: SPR, BIAcore T100; hAng2 (C-His) captured on anti-His CM5 chip, antibody flowed
T2 construct: Bought protein (R&D Systems), captured on an anti-His chip in SPR; also called human Ang2 protein; Angiopoietin-2; not shown: C-terminal His tag
T2 sequence: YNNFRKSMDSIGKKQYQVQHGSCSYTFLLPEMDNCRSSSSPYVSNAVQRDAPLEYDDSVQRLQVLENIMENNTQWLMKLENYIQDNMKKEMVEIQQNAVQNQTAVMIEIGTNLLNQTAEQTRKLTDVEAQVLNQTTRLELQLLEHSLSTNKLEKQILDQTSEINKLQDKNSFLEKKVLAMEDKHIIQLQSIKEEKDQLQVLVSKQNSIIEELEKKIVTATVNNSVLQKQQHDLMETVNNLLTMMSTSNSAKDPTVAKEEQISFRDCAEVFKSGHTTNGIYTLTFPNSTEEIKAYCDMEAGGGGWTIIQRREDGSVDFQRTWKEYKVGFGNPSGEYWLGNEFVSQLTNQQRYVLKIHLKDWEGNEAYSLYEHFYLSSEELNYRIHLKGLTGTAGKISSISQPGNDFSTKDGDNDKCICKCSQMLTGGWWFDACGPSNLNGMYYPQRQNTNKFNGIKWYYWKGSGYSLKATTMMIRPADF
Description: The binding affinity (KD values) of the antibodies to human Ang2 protein was measured by an SPR method using a BIAcore T100 (GE Healthcare). 25 μg/ml anti-His antibody was immobilized on a CM5 sensor chip (GE healthcare) using a pH 5.0 acetate solution and an amine coupling kit (GE Healthcare). 6 μg/ml of a recombinant hAng2 (C-His, R&D Systems) protein was flowed onto the chip to be captured at 100 to 200 RU levels.

hTie2-Fc (R&D Systems) = target: T3, hTie2-Fc (R&D Systems) (human, UniProt Q02763 23-745); experiment: Complex ELISA: Tie2-Fc coated (4 µg/ml), 10D6 2 µg/ml without Ang2, anti-mouse IgG-HRP, OD450
T3 construct: Bought fusion protein, coated on the plate at 4 ug/ml; also called hTie-2/Fc fusion protein; not shown: Fc of human IgG1
Description: as §1

BSA [3] = target: T1, BSA; experiment: Complex ELISA: BSA coated (4 µg/ml), 10D6 2 µg/ml, anti-mouse IgG-HRP, OD450
Description: as §1

T1 sequence (P02769 25-607 limits assumed): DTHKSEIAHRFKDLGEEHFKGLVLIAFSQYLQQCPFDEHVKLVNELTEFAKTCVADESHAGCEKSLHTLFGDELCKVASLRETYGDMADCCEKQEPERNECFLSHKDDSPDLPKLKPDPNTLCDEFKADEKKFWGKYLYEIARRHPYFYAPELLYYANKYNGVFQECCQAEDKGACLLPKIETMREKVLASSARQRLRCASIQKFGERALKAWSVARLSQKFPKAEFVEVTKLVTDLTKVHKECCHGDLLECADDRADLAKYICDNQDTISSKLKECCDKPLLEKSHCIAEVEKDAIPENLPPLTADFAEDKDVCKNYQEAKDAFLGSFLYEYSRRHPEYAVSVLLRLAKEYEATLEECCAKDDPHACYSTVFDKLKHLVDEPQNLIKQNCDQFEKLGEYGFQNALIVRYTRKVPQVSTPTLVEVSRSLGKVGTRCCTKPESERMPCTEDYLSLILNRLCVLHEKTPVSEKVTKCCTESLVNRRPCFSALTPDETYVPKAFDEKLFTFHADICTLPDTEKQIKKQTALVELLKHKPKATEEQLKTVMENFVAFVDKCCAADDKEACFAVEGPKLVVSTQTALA
T3 sequence (Q02763 23-745 limits assumed): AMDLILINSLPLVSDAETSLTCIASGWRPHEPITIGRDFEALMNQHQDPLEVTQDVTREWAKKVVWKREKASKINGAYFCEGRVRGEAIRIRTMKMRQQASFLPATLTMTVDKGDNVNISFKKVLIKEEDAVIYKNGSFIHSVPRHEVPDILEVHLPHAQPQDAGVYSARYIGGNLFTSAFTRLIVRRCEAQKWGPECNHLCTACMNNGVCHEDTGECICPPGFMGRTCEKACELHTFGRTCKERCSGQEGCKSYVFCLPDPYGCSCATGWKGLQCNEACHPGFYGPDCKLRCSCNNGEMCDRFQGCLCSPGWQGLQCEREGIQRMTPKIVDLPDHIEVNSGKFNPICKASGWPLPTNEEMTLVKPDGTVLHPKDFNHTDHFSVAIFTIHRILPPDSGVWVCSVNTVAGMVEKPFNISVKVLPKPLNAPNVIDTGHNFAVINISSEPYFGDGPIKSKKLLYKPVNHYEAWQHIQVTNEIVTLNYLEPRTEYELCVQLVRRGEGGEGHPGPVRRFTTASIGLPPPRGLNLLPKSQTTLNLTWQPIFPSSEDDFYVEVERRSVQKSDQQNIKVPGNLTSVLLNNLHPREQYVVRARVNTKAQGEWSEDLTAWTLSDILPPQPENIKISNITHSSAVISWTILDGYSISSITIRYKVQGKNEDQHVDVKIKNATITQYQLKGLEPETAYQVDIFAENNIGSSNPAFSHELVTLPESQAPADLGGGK

binding result (BSA [1]): no binding (tested: 0.25 µg/ml)
B1: FLAG-tagged hAng2 (ligand)
chain: T2 sequence
notes: not shown: FLAG tag

Kd [2]: 45.4 pM
kon [2]: 496000 M⁻¹ s⁻¹
B2: h10D6-OPTI-65 (antibody, V domains shown)
VH: QVQLQESGPGLVKPSETLSLTCAVSGYSITSDYAWNWIRQPPGKGLEWMGKISYSGKTDYNPSLKSRSTISRDTSKNQFSLKLSSVTAADTAVYYCARGNFEGAMDYWGQGTLVTVSS
VL: DIQMTQSPSSLSASVGDRVTITCKASQSVSNDVAWYQQKPGKAPKLLIYYASIPYPGVPSRFSGSGSGTDFTLTISSLQPEDFATYYCQQDYSSPWTFGQGTKLEIK
notes: also called HU2-6.6 / 10D6_VL-Hu1-2.4

binding result (hTie2-Fc (R&D Systems)): no binding (tested: 2 µg/ml)
binding result (BSA [3]): no binding (tested: 2 µg/ml)
B3: SAIT-ANG2-AB-m10D6 (antibody, V domains shown)
VH: DVQLQESGPDLVKPSQSLSLTCTVTGYSITSDYAWNWIRQFPGNKLEWMGYINYSGNTDYNPSLKSRSSITRDTSKNQFFLQLNSVTTGDTATYYCARGNFEGAMDYWGQGTSVTVSS
VL: SIVMTQTPKFLLVSAGDRVTITCKASQSVSNDVAWYQQKPGQSPKLLIYYASNRYPGVPDRFTGSGYGTDFTFTISTVQAEDLAVYFCQQDYSSPWTFGGGTKLEIK
notes: Mouse monoclonal antibody from hybridoma KCLRF-BP-00295, purified on Protein G and detected with anti-mouse IgG; the mouse constant regions are not; also called mouse antibody 10D6; mouse anti-Ang2 antibody 10D6
